# From the supplement of paper PMC5998384
# Columns and labels:
# HeLa Kyoto [1] = assay: melting temperature (median over replicates), in situ; higher = more thermally stable
# HeLa Kyoto [2] = assay: solubility change mitosis vs G1/S (difference of NP-40 vs SDS log2 ratios) (log2 ratio difference); higher = more soluble in mitosis
# HeLa Kyoto [3] = assay: solubility in G1/S (NP-40 vs SDS abundance) (log2 ratio); higher = more soluble; conditions: cell cycle stage: G1/S
# HeLa Kyoto [4] = assay: thermal stability score vs G1/S (z-score of summed log2 fold changes over temperatures); higher = more thermally stable than in G1/S
# [5] = cell cycle stage: early G1 (4.5 h after nocodazole release)
# 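For melting temperature (median over replicates), in situ in this document: HeLa Kyoto cells synchronized by double thymidine or nocodazole block, proteins quantified by TMT10plex mass spectrometry, three independent biological replicates.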
# 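For solubility change mitosis vs G1/S (difference of NP-40 vs SDS log2 ratios) in this document: synchronized HeLa Kyoto cells (double thymidine block for G1/S, nocodazole release for mitosis), protein amounts in NP-40 versus SDS lysates quantified by mass spectrometry, three biological replicates.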
# 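For solubility in G1/S (NP-40 vs SDS abundance) in this document: HeLa Kyoto cells arrested at G1/S by double thymidine block, proteins quantified by TMT10plex mass spectrometry in mild NP-40 versus SDS extracts, three biological replicates.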
# 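For thermal stability score vs G1/S (z-score of summed log2 fold changes over temperatures) in this document: synchronized HeLa Kyoto cells, proteins quantified by TMT10plex mass spectrometry, three biological replicates, mitosis taken 0.5 h after nocodazole release, G1/S directly after double thymidine block.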
# Sequence of SLC7A2 (chain, as listed by the source): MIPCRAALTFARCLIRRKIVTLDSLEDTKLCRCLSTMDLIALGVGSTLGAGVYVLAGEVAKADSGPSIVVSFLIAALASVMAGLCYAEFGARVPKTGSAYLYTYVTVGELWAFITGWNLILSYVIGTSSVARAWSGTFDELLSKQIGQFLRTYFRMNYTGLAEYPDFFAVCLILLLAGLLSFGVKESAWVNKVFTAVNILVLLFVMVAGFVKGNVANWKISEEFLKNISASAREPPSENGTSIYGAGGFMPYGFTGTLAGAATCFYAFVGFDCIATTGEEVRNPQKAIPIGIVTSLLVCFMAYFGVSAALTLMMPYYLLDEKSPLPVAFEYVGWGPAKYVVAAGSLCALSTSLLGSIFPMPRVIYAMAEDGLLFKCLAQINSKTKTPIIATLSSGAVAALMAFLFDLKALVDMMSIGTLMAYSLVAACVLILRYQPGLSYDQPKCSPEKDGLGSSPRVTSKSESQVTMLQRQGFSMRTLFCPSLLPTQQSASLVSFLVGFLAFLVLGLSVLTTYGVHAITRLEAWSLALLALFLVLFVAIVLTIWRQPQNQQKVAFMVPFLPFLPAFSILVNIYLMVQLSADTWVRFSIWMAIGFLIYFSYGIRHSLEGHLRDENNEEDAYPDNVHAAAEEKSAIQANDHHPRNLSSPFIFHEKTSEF
Substance,melting temperature (HeLa Kyoto [1]; cell cycle stage: G1/S) [°C],melting temperature (HeLa Kyoto [1]; cell cycle stage: mitosis) [°C],solubility change mitosis (log2) (HeLa Kyoto [2]),solubility in G1/S (log2) (HeLa Kyoto [3]),thermal stability score (HeLa Kyoto [4]; [5]),thermal stability score (HeLa Kyoto [4]; cell cycle stage: mitosis)
MLSRPKPGESEVDLLHFQSQFLAAGAAPAVQLVKKGNRGGGDANSDRPPLQDHRDVVMLDNLPDLPPALVPSPPKRARPSPGHCLPEDEDPEERLRRHDQHITAVLTKIIERDTSSVAVNLPVPSGVAFPAVFLRSRDTQGKSATSGKRSIFAQEIAARRIAEAKGPSVGEVVPNVGPPEGAVTCETPTPRNQGCQLPGSSHSFQGPNLVTGKGLRDQEAEQEAQTIHEENIARLQAMAPEEILQEQQRLLAQLDPSLVAFLRSHSHTQEQTGETASEEQRPGGPSANVTKEEPLMSAFASEPRKRDKLEPEAPALALPVTPQKEWLHMDTVELEKLHWTQDLPPVRRQQTQERMQARFSLQGELLAPDVDLPTHLGLHHHGEEAERAGYSLQELFHLTRSQVSQQRALALHVLAQVISRAQAGEFGDRLAGSVLSLLLDAGFLFLLRFSLDDRVDGVIATAIRALRALLVAPGDEELLDSTFSWYHGALTFPLMPSQEDKEDEDEDEECPAGKAKRKSPEEESRPPPDLARHDVIKGLLATSLLPRLRYVLEVTYPGPAVVLDILAVLIRLARHSLESATRVLECPRLIETIVREFLPTSWSPVGAGPTPSLYKVPCATAMKLLRVLASAGRNIAARLLSSFDLRSRLCRIIAEAPQELALPPEEAEMLSTEALRLWAVAASYGQGGYLYRELYPVLMRALQVVPRELSTHPPQPLSMQRIASLLTLLTQLTLAAGSTPAETISDSAEASLSATPSLVTWTQVSGLQPLVEPCLRQTLKLLSRPEMWRAVGPVPVACLLFLGAYYQAWSQQPSSCPEDWLQDMQRLSEELLLPLLSQPTLGSLWDSLRHCSLLCNPLSCVPALEAPPSLVSLGCSGGCPRLSLAGSASPFPFLTALLSLLNTLAQIHKGLCGQLAAILAAPGLQNYFLQCVAPGAAPHLTPFSAWALRHEYHLQYLALALAQKAAALQPLPATHAALYHGMALALLSRLLPGSEYLTHELLLSCVFRLEFLPERTSGGPEAADFSDQLSLGSSRVPRCGQGTLLAQACQDLPSIRNCYLTHCSPARASLLASQALHRGELQRVPTLLLPMPTEPLLPTDWPFLPLIRLYHRASDTPSGLSPTDTMGTAMRVLQWVLVLESWRPQALWAVPPAARLARLMCVFLVDSELFRESPVQHLVAALLAQLCQPQVLPNLNLDCRLPGLTSFPDLYANFLDHFEAVSFGDHLFGALVLLPLQRRFSVTLRLALFGEHVGALRALSLPLTQLPVSLECYTVPPEDNLALLQLYFRTLVTGALRPRWCPVLYAVAVAHVNSFIFSQDPQSSDEVKAARRSMLQKTWLLADEGLRQHLLHYKLPNSTLPEGFELYSQLPPLRQHYLQRLTSTVLQNGVSET [RPAP1],52.9,51.7,-0.0998,-0.1,0.47,0.88
MALLALLLVVALPRVWTDANLTARQRDPEDSQRTDEGDNRVWCHVCERENTFECQNPRRCKWTEPYCVIAAVKIFPRFFMVAKQCSAGCAAMERPKPEEKRFLLEEPMPFFYLKCCKIRYCNLEGPPINSSVFKEYAGSMGESCGGLWLAILLLLASIAAGLSLS [LY6K],52.6,52.9,-0.107,0.0392,2.6,2.04
MSSAPRSPTPRPRRMKKDESFLGKLGGTLARKRRAREVSDLQEEGKNAINSPMSPALVDVHPEDTQLEENEERTMIDPTSKEDPKFKELVKVLLDWINDVLVEERIIVKQLEEDLYDGQVLQKLLEKLAGCKLNVAEVTQSEIGQKQKLQTVLEAVHDLLRPRGWALRWSVDSIHGKNLVAILHLLVSLAMHFRAPIRLPEHVTVQVVVVRKREGLLHSSHISEELTTTTEMMMGRFERDAFDTLFDHAPDKLSVVKKSLITFVNKHLNKLNLEVTELETQFADGVYLVLLMGLLEDYFVPLHHFYLTPESFDQKVHNVSFAFELMLDGGLKKPKARPEDVVNLDLKSTLRVLYNLFTKYKNVE [PARVB],,50.4,-0.137,0.0443,0.418,0.496
MSRGPSSAVLPSALGSRKLGPRSLSCLSDLDGGVALEPRACRPPGSPGRAPPPTPAPSGCDPRLRPIILRRARSLPSSPERRQKAAGAPGAACRPGCSQKLRVRFADALGLELAQVKVFNAGDDPSVPLHVLSRLAINSDLCCSSQDLEFTLHCLVPDFPPPVEAADFGERLQRQLVCLERVTCSDLGISGTVRVCNVAFEKQVAVRYTFSGWRSTHEAVARWRGPAGPEGTEDVFTFGFPVPPFLLELGSRVHFAVRYQVAGAEYWDNNDHRDYSLTCRNHALHMPRGECEESWIHFI [PPP1R3D],51.7,50.8,-0.164,0.0302,-0.613,-0.713
MSKYKLIMLRHGEGAWNKENRFCSWVDQKLNSEGMEEARNCGKQLKALNFEFDLVFTSVLNRSIHTAWLILEELGQEWVPVESSWRLNERHYGALIGLNREQMALNHGEEQVRLWRRSYNVTPPPIEESHPYYQEIYNDRRYKVCDVPLDQLPRSESLKDVLERLLPYWNERIAPEVLRGKTILISAHGNSSRALLKHLEGISDEDIINITLPTGVPILLELDENLRAVGPHQFLGDQEAIQAAIKKVEDQGKVKQAKK [BPGM],53.1,55.1,-0.0036,0.328,1.51,0.348
MSDGDYDYLIKFLALGDSGVGKTSVLYQYTDGKFNSKFITTVGIDFREKRVVYRASGPDGATGRGQRIHLQLWDTAGQERFRSLTTAFFRDAMGFLLLFDLTNEQSFLNVRNWISQLQMHAYCENPDIVLCGNKSDLEDQRVVKEEEAIALAEKYGIPYFETSAANGTNISQAIEMLLDLIMKRMERCVDKSWIPEGVVRSNGHASTDQLSEEKEKGACGC [RAB27A],52.7,53.9,-0.0891,0.222,2.41,2.1
NUP214,50.5,49.8,0.0567,-0.301,-1.39,-1.03
MKMAAPTANKAASLGCNNKPAFPELDFRSGARVEELNKLIQEFTKHDQREYDDQRALEIHTAKDFIFSMLGMVQKLDQKLPVANEYLLLSGGVREGVVDLDLDELNVYARGTDYDMDFTLLVPALKLHDRNQPVTLDMRHSALCHSWLSLRLFDEGTISKWKDCCTIVDHINGATNYFFSPTKVADWFYDSISIVLSEIQKKPQRGMPKVEKVEKNGTIISIILGVGSSRMLYDIVPVVSFKGWPAVAQSWLMENHFWDGKITEEEVISGFYLVPACSYKGKKDNEWRLSFARSEVQLKKCISSSLMQAYQACKAIIIKLLSRPKAISPYHLRSMMLWACDRLPANYLAQEDYAAHFLLGLIDDLQHCLVNKMCPNYFIPQCNMLEHLSEETVMLHARKLSSVRSDPAEHLRTAIEHVKAANRLTLELQRRGSTTSIPSPQSDGGDPNQPDDRLAKKLQQLVTENPGKSISVFINPDDVTRPHFRIDDKFF [MB21D2],56.3,56.5,-0.0032,0.0815,1.1,-0.608
MTLESIMACCLSEEAKEARRINDEIERQLRRDKRDARRELKLLLLGTGESGKSTFIKQMRIIHGSGYSDEDKRGFTKLVYQNIFTAMQAMIRAMDTLKIPYKYEHNKAHAQLVREVDVEKVSAFENPYVDAIKSLWNDPGIQECYDRRREYQLSDSTKYYLNDLDRVADPAYLPTQQDVLRVRVPTTGIIEYPFDLQSVIFRMVDVGGQRSERRKWIHCFENVTSIMFLVALSEYDQVLVESDNENRMEESKALFRTIITYPWFQNSSVILFLNKKDLLEEKIMYSHLVDYFPEYDGPQRDAQAAREFILKMFVDLNPDSDKIIYSHFTCATDTENIRFVFAAVKDTILQLNLKEYNLV [GNAQ],54.7,54.3,-0.0689,-0.282,-0.77,-0.236
SLC7A2,55.5,57,-0.149,0.0385,-3.64,-8.3
MAPVGGGGRPVGGPARGRLLLAAPVLLVLLWALGARGQGSPQQGTIVGMRLASCNKSCGTNPDGIIFVSEGSTVNLRLYGYSLGNISSNLISFTEVDDAETLHKSTSCLELTKDLVVQQLVNVSRGNTSGVLVVLTKFLRRSESMKLYALCTRAQPDGPWLKWTDKDSLLFMVEEPGRFLPLWLHILLITVLLVLSGIFSGLNLGLMALDPMELRIVQNCGTEKERRYARKIEPIRRKGNYLLCSLLLGNVLVNTSLTILLDNLIGSGLMAVASSTIGIVIFGEILPQALCSRHGLAVGANTILLTKFFMLLTFPLSFPISKLLDFFLGQEIRTVYNREKLMEMLKVTEPYNDLVKEELNMIQGALELRTKTVEDIMTQLQDCFMIRSDAILDFNTMSEIMESGYTRIPVFEDEQSNIVDILYVKDLAFVDPDDCTPLKTITRFYNHPVHFVFHDTKLDAMLEEFKKGKSHLAIVQKVNNEGEGDPFYEVLGLVTLEDVIEEIIKSEILDESDMYTDNRSRKRVSEKNKRDFSAFKDADNELKVKISPQLLLAAHRFLATEVSQFSPSLISEKILLRLLKYPDVIQELKFDEHNKYYARHYLYTRNKPADYFILILQGKVEVEAGKENMKFETGAFSYYGTMALTSVPSDRSPAHPTPLSRSASLSYPDRTDVSTAATLAGSSNQFGSSVLGQYISDFSVRALVDLQYIKITRQQYQNGLLASRMENSPQFPIDGCTTHMENLAEKSELPVVDETTTLLNERNSLLHKASHENAI [CNNM4],51.7,52.1,-0.0459,-0.12,-0.56,-0.485
MALLSTVRGATWGRLVTRHFSHAARHGERPGGEELSRLLLDDLVPTSRLELLFGMTPCLLALQAARRSVARLLLQAGKAGLQGKRAELLRMAEARDIPVLRPRRQKLDTMCRYQVHQGVCMEVSPLRPRPWREAGEASPGDDPQQLWLVLDGIQDPRNFGAVLRSAHFLGVDKVITSRRNSCPLTPVVSKSSAGAMEVMDVFSTDDLTGFLQTKAQQGWLVAGTVGCPSTEDPQSSEIPIMSCLEFLWERPTLLVLGNEGSGLSQEVQASCQLLLTILPRRQLPPGLESLNVSVAAGILLHSICSQRKGFPTEGERRQLLQDPQEPSARSEGLSMAQHPGLSSGPEKERQNEG [MRM1],53.3,51.7,0.0939,-0.178,-1.62,-1.81
MQRRGALFGMPGGSGGRKMAAGDIGELLVPHMPTIRVPRSGDRVYKNECAFSYDSPNSEGGLYVCMNTFLAFGREHVERHFRKTGQSVYMHLKRHVREKVRGASGGALPKRRNSKIFLDLDTDDDLNSDDYEYEDEAKLVIFPDHYEIALPNIEELPALVTIACDAVLSSKSPYRKQDPDTWENELPVSKYANNLTQLDNGVRIPPSGWKCARCDLRENLWLNLTDGSVLCGKWFFDSSGGNGHALEHYRDMGYPLAVKLGTITPDGADVYSFQEEEPVLDPHLAKHLAHFGIDMLHMHGTENGLQDNDIKLRVSEWEVIQESGTKLKPMYGPGYTGLKNLGNSCYLSSVMQAIFSIPEFQRAYVGNLPRIFDYSPLDPTQDFNTQMTKLGHGLLSGQYSKPPVKSELIEQVMKEEHKPQQNGISPRMFKAFVSKSHPEFSSNRQQDAQEFFLHLVNLVERNRIGSENPSDVFRFLVEERIQCCQTRKVRYTERVDYLMQLPVAMEAATNKDELIAYELTRREAEANRRPLPELVRAKIPFSACLQAFSEPENVDDFWSSALQAKSAGVKTSRFASFPEYLVVQIKKFTFGLDWVPKKFDVSIDMPDLLDINHLRARGLQPGEEELPDISPPIVIPDDSKDRLMNQLIDPSDIDESSVMQLAEMGFPLEACRKAVYFTGNMGAEVAFNWIIVHMEEPDFAEPLTMPGYGGAASAGASVFGASGLDNQPPEEIVAIITSMGFQRNQAIQALRATNNNLERALDWIFSHPEFEEDSDFVIEMENNANANIISEAKPEGPRVKDGSGTYELFAFISHMGTSTMSGHYICHIKKEGRWVIYNDHKVCASERPPKDLGYMYFYRRIPS [USP13],50,50.2,-0.0974,0.0742,0.321,0.746
